Assay results published in patent publication US6500430B1, “Product and process to regulate actin polymerization in T lymphocytes” (National Jewish Medical and Research Center, priority 1995, dated 2002).
Where a chain is given by its changes, count along the chain named.

What was measured:
[1] = tested on: TCR-ζ; test: Cell-free association of TCR-ζ with the actin cytoskeleton (detergent soluble lysate, newly polymerized pellet); type: biochemical, murine
Procedure: Freshly isolated murine thymocytes or lymph node T cells, or CD25/ζ-expressing T cell hybridomas, were washed 3 times in BSS and incubated in the presence or absence of cytochalasin D for 1.5 hrs at 4° C., solubilized with 0.5% NP-40 in a Tris buffered saline solution (TBS; 150 mM NaCl, 10 mM Tris, pH 7.3) containing protease and phosphatase inhibitors (0.2 mM VO3, 10 mM NaF, 1 mM PMSF, and 1 mg/ml each of Aprotinin, Leupeptin, and α-l-antitrypsin) and centrifuged at 10,000 rpm for 10 min to pellet the insoluble material. […] To increase actin polymerization, the Mg^2+ concentration was increased to 2 mM. […] Immunoprecipitation of the detergent soluble fraction with anti-TCR-ζ antibody was then performed as described in Example 4. The pellet and the anti-TCR-ζ immunoprecipitate were resolved by SDS-PAGE gel electrophoresis and immunoblotted with anti-TCR-ζ antibody.

[2] = tested on: IL-2 production; test: IL-2 production by T cells expressing chimeric molecules after antibody cross-linking; type: cell-based; conditions: for IL-2 production, fold less than the wild-type CD8/ζ: maximal stimulation with anti-CD8-α antibody, 24 hours, FIG. 4
Procedure: Microcultures of 0.25 ml were prepared containing 10^5 responding T cells expressing CD8/ζ, CD8/ζD67-126, CD8/ζY153E, CD25/ζ or CD25/ζY153E. For stimulation, microtiter wells were precoated with 50 μl of a phosphate-buffered saline solution containing varying concentrations of purified anti-CD8-α antibody (19/178) or anti-hCD25 antibody (B1.49.9) to cross-link the CD8/ζ, CD8/ζD67-126 and CD8/ζY153E, or CD25/ζ and CD25/ζY153E, respectively, on the surface of the T cells. Control wells were coated with an irrelevant antibody. After 2 hours at room temperature and 1 hr at 4° C., the wells were washed three times with fetal calf serum-containing tissue culture medium. […]. After 24 hours in culture, the supernatants were harvested and assayed for IL-2 content using methods generally described in Gillis et al. (J. Immunol. 120:2027-2032, 1978). A concentration of 1 U/ml of IL-2 was the minimum detectable in this assay.

[3] = tested on: BW 5147 α−β− thymoma transfectants; test: Association of chimeric or truncated TCR-ζ molecules with the cytoskeleton upon receptor ligation (immunoblot of detergent insoluble pellet); type: cell-based; conditions: substitution of the distal COOH-terminal tyrosine of the third ITAM

Molecule: [Mg+2] [Mg^2+, reference compound]
- TCR-ζ binding with actin polymerization induced in vitro ([1]; 2 mM Mg2+ alone): without additional TCR-ζ binding

Molecule: CD8/ζD67-126: truncated CD8/ζ chimera expressing only intact ζc domain (SEQ ID NO:29) (RAKFSRSAETAANLQGTKGERRRGKGHDGLYQGLSTATKDTYDALHMQTLAPR)
- IL-2 production, fold less than the wild-type CD8/ζ [2]: 40 fold

B1: CD25/ζY153F: CD25/ζ with the tyrosine at residue 153 substituted for a phenylalanine (SEQ ID NO:31) (protein)
chain: RAKFSRSAETAANLQDPNQLYNELNLGRREEYDVLEKKRARDPEMGGKQQRRRNPQEGVYNALQKDKMAEAYSEIGTKGERRRGKGHDGLYQGLSTATKDTFDALHMQTLAPR
- Effect of removal of the distal tyrosine (Y153F) on cytoskeletal association [3]: almost completely abrogated cytoskeletal association
- Tyrosine phosphorylation of a set of proteins induced by receptor ligation, compared with the intact CD25/ζ chimera ([2]; receptor ligation): qualitatively and quantitatively indistinguishable

B2: CD8/ζY153E: substituted CD8/ζ chimera (SEQ ID NO:30) (protein)
chain: B1 chain with F102E
- IL-2 production, fold less than the wild-type CD8/ζ [2]: 100 fold

B3: CD25/ζ: chimera of extracellular and transmembrane regions of CD25 and the cytoplasmic domain of TCR-ζ (protein)
chain: ELCDDDPPEIPHATFKAMAYKEGTMLNCECKRGFRRIKSGSLYMLCTGNSSHSSWDNQCQCTSSATRNTTKQVTPQPEEQKERKTTEMQSPMQPVDQASLPGHCREPPPWENEATERIYHFVVGQMVYYQCVQGYRALHRGPAESVCKMTHGKTRWTQPQLICTGEMETSQFPGEEKPQASPEGRPESETSCLVTTTDFQIQTEMAATMETSIFTTEYQVAVAGCVFLLISVLLLSGLRAKFSRSAETAANLQDPNQLYNELNLGRREEYDVLEKKRARDPEMGGKQQRRRNPQEGVYNALQKDKMAEAYSEIGTKGERRRGKGHDGLYQGLSTATKDTYDALHMQTLAPR
- Co-sedimentation with the actin cytoskeleton in vitro ([1]; in vitro activating (MgATP) condition, depleted from the pellet under actin depolymerizing conditions): co-sediments with the actin cytoskeleton
